{
  "source": "patent US20240376186A1",
  "about": "(published 2024)",
  "binders": {"B1": {"name": "EWE-hC3Nb1 (VHH)", "VHH": "QVQLVETGGGLVQAGGSLRLSCAASGSIFSINAMGWFRQAPGKEREFVATINRSGGRTYYADSVKGRFTISRDNGKNMVYLQMHSLKPEDTAIYYCAAGTGWSPQTDNEYNYWGQGTQVTVSS"}, "B2": {"name": "EWEµH (other)", "chain": "EWEQVQLVETGGGLVQAGGSLRLSCAASGSIFSINAMGWFRQAPGKEREFVATINRSGGRTYYADSVKGRFTISRDNGKNMVYLQMHSLKPEDTAIYYCAAGTGWSPQTDNEYNYWGQGTQVTVSSGGGGSGGGGSGGGGSGGGGSRPCGHPGDTPFGTFTLTGGNVFEYGVKAVYTCNEGYQLLGEINYRECDTDGWTNDIPICEVVKCLPVTAPENGKIVSSAMEPDREYHFGQAVRFVCNSGYKIEGDEEMHCSDDGFWSKEKPKCVEISCKSPDVINGSPISQKIIYKENERFQYKCNMGYEYSERGDAVCTESGWRPLPSCEEAGGGGGGGGGGGGGKCGPPPPIDNGDITSFPLSVYAPASSVEYQCQNLYQLEGNKRITCRNGQWSEPPKCLHPCVISREIMENYNIALRWTAKQKLYSRTGESVEFVCKRGYRLSSRSHTLRTTCWDGKLEYPTCAKRENLYFQG"}, "B3": {"name": "EWEnH (other)", "chain": "EWEQVQLVETGGGLVQAGGSLRLSCAASGSIFSINAMGWFRQAPGKEREFVATINRSGGRTYYADSVKGRFTISRDNGKNMVYLQMHSLKPEDTAIYYCAAGTGWSPQTDNEYNYWGQGTQVTVSSGGGGSGGGGSGGGGSGGGGSRPCGHPGDTPFGTFTLTGGNVFEYGVKAVYTCNEGYQLLGEINYRECDTDGWTNDIPICEVVKCLPVTAPENGKIVSSAMEPDREYHFGQAVRFVCNSGYKIEGDEEMHCSDDGFWSKEKPKCVEISCKSPDVINGSPISQKIIYKENERFQYKCNMGYEYSERGDAVCTESGWRPLPSCEEA"}},
  "data": [
    {"target": "C3b (UniProt P01024 23-667; P01024 749-1663)", "sequence (P01024 23-667, chain 1 of 2)": "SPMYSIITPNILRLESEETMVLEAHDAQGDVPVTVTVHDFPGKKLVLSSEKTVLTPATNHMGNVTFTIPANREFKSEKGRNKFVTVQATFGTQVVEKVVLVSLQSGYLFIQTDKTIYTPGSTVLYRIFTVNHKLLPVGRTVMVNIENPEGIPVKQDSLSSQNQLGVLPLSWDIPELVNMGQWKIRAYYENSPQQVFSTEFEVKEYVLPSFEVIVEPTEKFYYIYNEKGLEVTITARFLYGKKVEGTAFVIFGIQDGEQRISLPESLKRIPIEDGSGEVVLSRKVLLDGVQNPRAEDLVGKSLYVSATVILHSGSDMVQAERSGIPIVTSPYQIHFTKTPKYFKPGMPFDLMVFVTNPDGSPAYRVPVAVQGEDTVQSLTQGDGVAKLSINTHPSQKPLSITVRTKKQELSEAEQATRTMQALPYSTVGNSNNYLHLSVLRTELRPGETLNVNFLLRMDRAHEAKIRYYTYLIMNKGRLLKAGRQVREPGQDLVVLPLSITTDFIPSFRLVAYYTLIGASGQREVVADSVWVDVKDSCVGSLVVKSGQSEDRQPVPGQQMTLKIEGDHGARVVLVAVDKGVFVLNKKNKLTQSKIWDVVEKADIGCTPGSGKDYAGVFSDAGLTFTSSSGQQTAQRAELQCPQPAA", "sequence (P01024 749-1663, chain 2 of 2)": "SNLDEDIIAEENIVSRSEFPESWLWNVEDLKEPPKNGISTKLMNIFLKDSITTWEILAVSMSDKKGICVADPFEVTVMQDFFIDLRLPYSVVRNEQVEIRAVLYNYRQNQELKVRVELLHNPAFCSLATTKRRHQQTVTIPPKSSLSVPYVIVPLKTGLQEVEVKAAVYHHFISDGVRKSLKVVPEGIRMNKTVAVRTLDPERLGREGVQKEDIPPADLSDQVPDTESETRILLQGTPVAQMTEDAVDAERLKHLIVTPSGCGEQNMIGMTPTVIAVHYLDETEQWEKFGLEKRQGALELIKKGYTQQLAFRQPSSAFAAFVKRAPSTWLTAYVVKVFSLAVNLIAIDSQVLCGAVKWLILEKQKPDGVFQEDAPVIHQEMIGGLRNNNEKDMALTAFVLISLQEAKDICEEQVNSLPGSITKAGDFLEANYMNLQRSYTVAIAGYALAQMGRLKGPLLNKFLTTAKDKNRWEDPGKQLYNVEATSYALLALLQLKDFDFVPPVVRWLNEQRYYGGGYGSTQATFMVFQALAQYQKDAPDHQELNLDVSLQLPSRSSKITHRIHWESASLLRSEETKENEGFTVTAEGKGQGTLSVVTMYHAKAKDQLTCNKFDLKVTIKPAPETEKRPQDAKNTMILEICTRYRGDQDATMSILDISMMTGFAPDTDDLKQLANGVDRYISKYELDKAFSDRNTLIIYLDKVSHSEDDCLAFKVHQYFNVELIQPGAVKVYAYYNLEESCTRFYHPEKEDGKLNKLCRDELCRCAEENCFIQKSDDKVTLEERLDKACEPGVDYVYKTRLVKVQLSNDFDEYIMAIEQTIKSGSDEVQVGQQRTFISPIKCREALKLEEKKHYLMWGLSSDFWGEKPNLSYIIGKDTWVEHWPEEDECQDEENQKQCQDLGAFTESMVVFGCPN", "experiment": "BLI", "units": {"Kd": "nM"}, "values": [
      {"binder": "B1", "Kd": 3},
      {"binder": "B2", "Kd": 0.4},
      {"binder": "B3", "Kd": 7.1}
    ]}
  ]
}
